Measured values as given in publication PMC7876548.

Molecular target: unmethylated D2 peptide (amino acids 208-243 of the third intracellular loop of the human D2 receptor) (human) (UniProt P14416)
Assay: fluorescence polarisation; anisotropy; fluorescently labelled D2 peptide at 0.025 µM final, Par-4 or CaM added from 10x stocks of 0-20 µM; 200 mM NaCl, 200 µM CaCl2, 50 mM Tris pH 7.5; room temperature, ten minutes; average of four trials

Chain of unmethylated D2 peptide (amino acids 208-243 of the third intracellular loop of the human D2 receptor) (human) (P14416 208-243): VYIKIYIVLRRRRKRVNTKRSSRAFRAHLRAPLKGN

## human Par-4 (prostate apoptosis response 4 protein) (from UniProt Q96IZ0 1-340) (natural protein)
  Kd: 21.6 nM
